Usually Kd stands for the concentration at which binding is half-saturated.

Common to all, as to conditions: both partners purified
One test concerns the target T1, Avitag-PHD1 (human, UniProt P41229-1 318-378, biotin on the Avitag (BirA co-expression)).
T1 construct: KDM5C, human, PHD1 domain, residues 318-378; 6xHis-SUMO-Avitag-(GS)2-PHD1 before cleavage by SenP1; also called biotinylated Avitag-PHD1; Avitag-(GS)2-PHD1; source: E. coli BL21(DE3), co-expressed with BirA, purified (Ni-NTA, MonoQ flow-through); not shown: 6xHis, N-terminal, cleaved; SUMO (Smt3), N-terminal, cleaved; Avitag-(GS)2, N-terminal, kept
T1 sequence (looked up): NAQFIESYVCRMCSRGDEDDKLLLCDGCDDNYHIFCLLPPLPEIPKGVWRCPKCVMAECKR
Nature of the test: BLI; biotinylated Avitag-PHD1 (100 nM) loaded on streptavidin biosensors; 100 μM peptide; 50 mM HEPES pH 8, 50 mM KCl, 50 μM ZnCl2, 5 mM BME, 0.05% Tween-20; 25 °C; two phase exponential fit. A general note: BLI is a label-free optical method that tracks binding on a fibre tip over time.

Test [1] deals with T2, PHD1 (KDM5C residues 318–378) (human, UniProt P41229-1 318-378).
T2 construct: KDM5C, human, PHD1 domain, residues 318-378; 15N-labelled (or 15N,13C) for NMR; also called PHD1 domain of KDM5C; source: E. coli BL21(DE3), M9 minimal medium, purified (Ni-NTA, MonoQ flow-through); not shown: 6xHis, N-terminal, cleaved; SUMO (Smt3), N-terminal, cleaved
T2 sequence (looked up): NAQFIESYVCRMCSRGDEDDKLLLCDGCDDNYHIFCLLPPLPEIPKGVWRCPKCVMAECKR
Nature of the test: NMR titration; 2D 1H-15N HSQC of 200 μM 15N-PHD1 with increasing peptide up to 1:5 PHD1:peptide; 50 mM HEPES pH 7.5, 50 mM KCl, 5 mM BME, 50 μM ZnCl2, 5% D2O, 298 K; Kd from chemical shift change of one residue (I361 or D343), quadratic binding equation.

The target in a further test is T3, PHD1 D343A mutant (human, UniProt P41229-1 318-378, D343A).
T3 construct: KDM5C, human, PHD1 domain, residues 318-378 (limits as told for wild-type PHD1)
T3 sequence (looked up): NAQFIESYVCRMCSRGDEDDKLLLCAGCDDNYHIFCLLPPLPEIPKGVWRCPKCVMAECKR
Described as above.

No end group written: not given here. Me3 = trimethyl; Me2 = dimethyl

B1: KDM5C (295–314) peptide (peptide)
peptide: Ac-KEELSHSPEPCTKMTMRLRR-NH2
notes: KDM5C, human, ARID-PHD1 linker, residues 295-314; source: synthetic peptide (GenScript)
For the molecule B1, the binding result with Avitag-PHD1 is “binds”.

B2: H3K4me1 (1–18) peptide (peptide, UniProt P68431 2-19, looked up)
peptide: ARTK(Me)QTARKSTGGKAPRK
notes: histone H3 N-terminal tail, residues 1-18; source: synthetic peptide (GenScript)
For the molecule B2, the binding result in test [1] is “binds”. Regarding Ac-QSVQPSKFNSYGRRAKRLQP-NH2 (source: synthetic peptide (GenScript)) [KDM5C (199–218) peptide], the “fold lower affinity than the H3 tail” value in test [1] was roughly 3 fold.

B3: H3K4me3 (1–18) peptide (peptide, UniProt P68431 2-19, looked up)
peptide: ARTK(Me3)QTARKSTGGKAPRK
notes: as for B2
As for B3, the binding result in test [1] is given as “binds”.

B4: H3 (1–18) tail peptide (peptide, UniProt P68431 2-19, looked up)
peptide: ARTKQTARKSTGGKAPRK
notes: histone H3 N-terminal tail, residues 1-18; also called H3 (1–18) peptide; H3K4me0 (1–18); source: synthetic peptide (GenScript)
For the molecule B4, the “fold decrease in affinity against wild-type PHD1” value with PHD1 D343A mutant is no less than 10 fold. Further, the Kd in test [1] was found to be 130 µM.

B5: H3K4me2 (1–18) peptide (peptide, UniProt P68431 2-19, looked up)
peptide: ARTK(Me2)QTARKSTGGKAPRK
notes: as for B2
For B5, the binding result in test [1] is reported as “binds”.

Values taken from PMC10247153, “Chromatin Sensing by the Auxiliary Domains of KDM5C Regulates Its Demethylase Activity and Is Disrupted by X-linked Intellectual Disability Mutations” (Journal of molecular biology, 2022).
